The target of this experiment is FITC-labelled human holo-transferrin (human, UniProt P02787 20-698, FITC label (position not given); holo form). The experiment is described as follows: solid-phase fluorescence binding assay.
FITC-labelled human holo-transferrin, sequence (P02787 20-698): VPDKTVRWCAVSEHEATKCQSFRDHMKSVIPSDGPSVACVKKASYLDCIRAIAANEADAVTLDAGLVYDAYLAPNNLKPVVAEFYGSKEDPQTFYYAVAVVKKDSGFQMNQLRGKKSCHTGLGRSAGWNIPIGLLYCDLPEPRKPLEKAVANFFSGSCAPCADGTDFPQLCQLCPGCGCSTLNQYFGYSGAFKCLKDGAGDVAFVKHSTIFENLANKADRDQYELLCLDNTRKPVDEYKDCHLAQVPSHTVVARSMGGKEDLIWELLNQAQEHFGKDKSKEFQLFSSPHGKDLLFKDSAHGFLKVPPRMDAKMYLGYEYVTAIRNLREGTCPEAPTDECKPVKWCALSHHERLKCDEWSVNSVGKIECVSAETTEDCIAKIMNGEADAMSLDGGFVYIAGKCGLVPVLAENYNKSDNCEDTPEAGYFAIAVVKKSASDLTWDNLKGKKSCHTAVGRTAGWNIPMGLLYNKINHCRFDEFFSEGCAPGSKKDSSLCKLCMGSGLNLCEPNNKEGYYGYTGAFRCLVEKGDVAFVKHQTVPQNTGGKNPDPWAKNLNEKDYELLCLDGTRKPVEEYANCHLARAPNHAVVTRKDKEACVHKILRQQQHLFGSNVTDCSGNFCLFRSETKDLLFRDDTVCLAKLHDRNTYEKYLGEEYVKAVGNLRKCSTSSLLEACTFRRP

B1: immX3AVD (peptide)
peptide: KKGFYKKKQCRPSKGRKRGFCWAVD
modifications: biotinylated (position not given); labelled with streptavidin-Alexa 488 conjugate (SA488) in the nuclear receptor assay
For B1, the binding result is on record as “binds”.

These data come from paper PMC9830397 (European Journal of Translational Myology, 2022).
